This is an account of results in publication PMC6821725, “Unique structure and function of viral rhodopsins” (Nature Communications, 2019).

For series [1], the target named is T1, Organic Lake Phycodnavirus rhodopsin II (OLPVRII) (Organic Lake phycodnavirus, UniProt Z9UQ29F7D0).
T1 construct: expressed in E. coli SE1 or C41(DE3); monomeric and pentameric fractions in DDM
The experiment in a line: X-ray crystal structure […] A, in meso; UV-Vis absorption. The settings on record: covalent; Schiff base to Lys195; crystals from 0.2 M sodium malonate pH 4.6; spectra in DDM. It counts as binding.

A further series deals with Asp85 (UniProt position 98, WARYADWLFTT). To be noted: cited from earlier work.
The target in series [2] is OLPVRII triple mutant E26A/R36A/W203A (Organic Lake Phycodnavirus). Nature of the series: SEC. (SEC sorts molecules by how far they enter the pores of the column.)
The target in series [3] is Organic Lake Phycodnavirus rhodopsin II (Organic Lake Phycodnavirus). Nature of the series: crystal structure; in meso crystallization in monoolein from the monomeric fraction, 0.2 M sodium malonate pH 4.6, 15% PEG 550 MME, 22 °C; space group P2_(1), five molecules in the asymmetric unit.
The target is the same in series [4]. The experiment in a line: SEC.
Series [5] shares this target. The experiment in a line: cross-linking; glutaraldehyde (10%), DDM-solubilized multimeric SEC fraction, 2 mg/ml protein, 8 h, 4 °C, read by SDS-PAGE.
For series [6] the target is unchanged. Nature of the series: cross-linking; glutaraldehyde (10%), monomeric fraction reconstituted into POPC/POPG (4:1 by weight; POPC:POPS in another paragraph) liposomes, 1 mg/ml protein, 8 h, read by SDS-PAGE.

As for `CC1=C(/C=C/C(C)=C/C=C/C(C)=C/C=O)C(C)(C)CCC1` [all-trans-retinal], the “X-ray crystal structure 1.9 A, in meso; UV-Vis absorption” value in series [1] was “The retinal cofactor is covalently bound to Lys195 through the Schiff base (RSB)”.

The pKa is the pH at which an ionisable group is half protonated. Take “Bacteriorhodopsin (bR) (Halobacterium salinarum)”: in the series with Asp85, the pKa is on record as 2.7.

As usually defined, the stoichiometry N is the number of molecules, sites or subunits per partner or assembly. As for “OLPVRII triple mutant E26A/R36A/W203A (natural protein)”, in series [2], the pentamer:monomer ratio in the elution profile (pentamer:monomer) amounted to 1 and the stoichiometry N was found to be 5.

In the case of “Organic Lake Phycodnavirus rhodopsin II (natural protein)”, the stoichiometry N in series [3], in series [4], in series [5] and in series [6] was 5 each time. In series [4], the pentamer:monomer ratio in the elution profile (pentamer:monomer) worked out at 4.
